Experimental data as given in US20240059762A1 (SINGLE CELL TECHNOLOGY, published 2024).
Changes are numbered by the printed parent chain.

B1: SCT-Pa01 (antibody, mouse IgG1, kappa, V domains shown)
VH: QVTLKESGPGILQPSQTLSLTCSFDGFSLSTFGMGVGWIRQPSGRGLEWLAHIWWDDDKNYKPALKSRLTISKDTSKNQVFLKIANVDTADTATYYCTRMREDSSDYVYYIMDYWGQGTSVIVAS
VL: QIVLTQSPSIMSASPGEKVTISCSASSSVSYMYWYQQKPGSSPRPWIYRTSNLASGVPARFSGSGSGTSYSLTITSMEAEDAATYYCQLYHSYPPTWTFGGGTKLEIKR
B2: SCT-Pa03 (antibody, mouse IgG1, kappa, V domains shown)
VH: QVQLKQSGAELVRPGASVKLSCKASGYTFTDYYINWVKQRPGQGLEWIARIYPGNNYAYYDEKFKGKATLTAEKSSSTAYMQLSSLTSEDSAVYFCAKDDGYRFAYWGQGTLVTVSA
VL: DIQMTQSSSYLSVSLGGRVTITCKASDHINNWLAWYQQKPGNAPRLLISGATSLETGVPSRFSGSGSGKDYTLSITSLQTEDVATYYCQQYWSTPPTFGGGTKLEIKR
B3: SCT-Pa04 (antibody, mouse IgG1, kappa, V domains shown)
VH: EVQLQQSGPELVKPGASVKMSCKASGYSFTSYVMHWVKQKPGQGLEWIGYINPYNDGTKYNEKFKGKATLTSDKSSSTAFMDLSSLTSDDSAVYYCSRDDYSNPPFAYWGQGTLVTVSA
VL: SIVMTQTPKFLLVSAGDRITITCKASQSVSNNVAWYQQKPGQSPTLLISYASNRFTGVPDRFTGSGYGTDFTFTISIVQAEDLAVYFCQQDYDSPYTFGGGTKLEIKR
B4: SCT-Pa05 (antibody, mouse IgG1, kappa, V domains shown)
VH: EVQLQQSGAELVKPGASVKLSCTTSGFNIKDYYFHWVKQRTEQGLEWIGRIDPEDGETEYAPKFRDKATITADTSSNTAYLQLSSLTSEDTAIYYCARSLYYWGQGTTLTVSS
VL: DIVMTQSPSSLSVWAGEKVTMSCKSSQSLLNSGDQKNYLTWYQQKPGQSPKLLIYETSTRDYGVPDRFTGSGSGADFTLTISSVQAEDLAVYYCLNDLTYPLTFGAGTKLELKR
B5: SCT-Pa06 (antibody, mouse IgG1, kappa, V domains shown)
VH: QVTLKESGPGILQPSQTLSLTCSFSGFSLSTYGMGVGWIRQPSGKGLEWLANIWWNDDKNYNSALKSRLTISKDTSNNQLFLRISSVDTADTATYFCAQIPAYYSNSWFAYWGHGTLVTVSA
VL: ENVLTQSPAIMAASPGEKVTMTCSASSSVSSGNFHWYQQKPGTSPKLWIYRTSNLASGVPARFSGSGSGTSYSLTISSMEAEDAATYYCQQWSGYPYTFGSGTKLKIKR
B6: SCT-Pa07 (antibody, mouse IgG1, kappa, V domains shown)
VH: EVQLQQSGPELVKPGDSVKMSCKASGYTFTDYYMDWVKQSHGKSLEWIGYIYTNNGDTNYNQKFKGKATLTVDKSSSTAYMELHSLTSEDSAVYYCASLYYSNFFDSWGQGTTLTVSS
VL: ENVLTQSPAIMSATLGEKVTVSCRARSNVKYMYWYQQKSGASPKLLIYYTSNLASGVPARFSGSGSGTSYSLTISSVEAEDAATYYCQQFTSSPFTFGSGTKLEIKR
B7: SCT-Pa08 (antibody, mouse IgG1, kappa, V domains shown)
VH: QVQLHQSGAELVKPGASVKLSCKASGYTFTEYSIHWVKQRSGQDLEWIGWFNPGTGSIKYNEKFKDKATLTADKSSSTVYMELSRLTSEDSAVYFCARHGGRWVIQWNFDVWGTGTTVTVSS
VL: DIVMSQSPSSLAVSVGEKVTMSCKSSQNLLYSSNQKNFLAWYQQRPGQSPKLLIYWASTRESGVPDRFTGSGTGTDFTLTISSVKAEDLAVYYCQQYYRYPFTFGSGTKLEIKR
B8: SCT-Pa09 (antibody, mouse IgG1, kappa, V domains shown)
VH: QVQLQQPGAELVKPGTSVRLSCQASGYTFTSSWIHWVKQRTGQGLEWIGEISLTNGDINYNEKFTSKATLTVDKSSSTAYMQLSSLTSEDSAVYYCTIIPDGYSLYWYFDVWGAGTTVTVSS
VL: QIVLSQSPPILSASPGARVTMTCRASSSVNYMHWYQQKPGSSPKPWIYATSNLASGVPVRFSGSGSGTSYSLTISRVEAEDAATYYCQQWSSNPPTFGGGTKLEIKR
B9: SCT-Pa10 (antibody, mouse IgG1, kappa, V domains shown)
VH: QVQLQQSGPELVKPGASVKISCKASGYAFSTSWMNWMKQRPGKGLEWIGRIYPGDGETNYNGKFKGKATLTADKSSSTAYMQLSSLTSDDSAVYFCARGANGDYLFYLDYWGQGTTLTVSS
VL: DIQMTQTTSSLSASLGDRVTISCSASQDISDFLNWYQQKPDGTVKLLIYYTSSLHSGVPSRFSGSGSGTDYSLTINNLEPEDIATYYCQQYSKLPYTFGGGTKLEIRR
B10: SCT-Pa11 (antibody, mouse IgG1, kappa, V domains shown)
VH: EVQLQQSGPELVKPGASVKMSCKASGYTFTSYVIHWVKQKPGQGLEWIGYINPYNDGTEYNEKFKGKATLTSDKSSSTAYMELSSLTSEDSAVYYCSRDDYNNRFAYWGPGTLVTVSA
VL: DIQMTQSPASLSASVGETVTITCRPSENIYSYLAWYQQKQGKSPQLLVYNAKTLVEGVPSRFSGSGSGTQFSLKINSVQPEDCGSYYCLHHFGTPWTFGGGTILEIKR
B11: SCT-Pa12 (antibody, mouse IgG1, kappa, V domains shown)
VH: QVQLQQSGAELARPGASVKLSCKASGYSFTSYGISWVKQRTGQGLEWIGDIYPRSGNTDYNEKFKGKATLTADKSSSTANMQLSSLTSEDSAIYFCARSGDGYLYAMDYWGQGTSVTVSS
VL: B9 VL with S24R, D31N, F32Y, S53R, N76S, T85P, G100S, R107K
B12: SCT-Pa02 (antibody, mouse IgG1, kappa, V domains shown)
VH: QMQLKQSGPGLVQPSQSLSITCTVSGFSLTSYGVHWVRQSPEKGLEWLGVIWSGGGTDYNAAFISRLSISKDNSKSQVFLKMSSLQTDDTAIYYCARGAYYSLDYWGQGTTLTVSS
VL: DIVLTQSPASLAVSLGQRATISCRASESVDYDGDNYMNWYQQKPGQSPKLLIYATSNLESRIPARFSGSGSGTEFTLNIHPVEEEDAATYYCLQSYDVPYTFGSGTKLEMKR
B13: SCT-Pa14 (antibody, mouse IgG1, kappa, V domains shown)
VH: EVQLQQSGAELVSPGASVKLSCTASGFNIKDDYMHWVKQRPEQGLEWIGRIDPANGNTKYAPKFQDKATITADTSSNTAYLQLSSLTSEDTAVYYCFYSFYIPYTMDFWGQGTSVTVSS
VL: B6 VL with V21M, R26S, L46W, A54T, F95Y
B14: SCT-Pa15 (antibody, mouse IgG1, kappa, V domains shown)
VH: QVQVKQSGPGLVQPSQSLSITCTVSGFSSTSYAIHWVRQSPGKGLEWLGVIWSGGTTDYNAAFISRLSFSKDNSKSQLFFKMNSLQADDTAMYYCARGNYYGMDYWGQGTSVTVSS
VL: DIVVTQSPASLAVSLGQRATISCRASESIDYDGDSYVNWYQQKPGQPPNLLIYAASNLESGIPARFSGGGSGTDFTLTIHPVEEEDAATYYCLQSYETPWTFGGGTKLEIKR
B15: SCT-Pa16 (antibody, mouse IgG1, kappa, V domains shown)
VH: QVQLQQPGTELVKPGASVKLSCKASGYTFTSYWMHWVKQRPGQGLEWIGSVNPSNGGANYNEKFKNKATLTVDKSSSTAYMQLSSLTSEDSAVYYCARRNGFPYYFDYWGQGTTLTVSS
VL: DIVMTQSQKFVSTSVGDRVSVTCKASQNVGTNVVWYQQKPGQSPKPLIYSASYRYSGVPDRFTGSGSGTDFTLTISNVQSEDLADYFCHQYNSSPLTFGVGTKLELKR
B16: SCT-Pa17 (antibody, mouse IgG1, kappa, V domains shown)
VH: QVQLQQPGAELVKPGASVKLSCKASGYAFTSSWINWVKRRPGQGLEWIGNVYPRSSSPNYNEKFKGKATLTVDTSSSTAYMQLSSLTSDDSAVYFCARGYGSYWYFDVWGAGTSVTVSS
VL: DIQMTQSSSSFSVSLGDRVTITCKASEDIYNRLAWYQQKPGNAPRLLISGATTLETGVPSRFSGSGSGKDYALSITSLQTEDVSTYYCQEYWSLSPTFGGGTKLEIKR
B17: SCT-Pa18 (antibody, mouse IgG1, kappa, V domains shown)
VH: QVQLQQPGAELVKPGASVKLSCKASGYTFTSYWMQWVKQRPGQGLEWIGEIAPSDSYTNYNQKFKGKATLTVDTSSSTAYMQLSSLTSEDSAVYYCAGGDYYGYDVKTWFAYWGQGTLVTVSA
VL: B9 VL with D31N, F32Y, D70G, N76S, R107K
B18: SCT-Pa19 (antibody, mouse IgG1, kappa, V domains shown)
VH: QVQLQQPGAELVRPGSSVKLSCKASGYTFTNYWMLWVKQRPMQGLEWIGSIDPSDSETHYNQKFKDKATLTVDKSSSTAYMRLGSLTSEDSAVYYCARDSYGWYFDVWGTGTTVTVSS
VL: DIVMTQSQKFMSTSVGDRVSVTCKASQNVGSNVAWYQQKSGQSPKALIYSASYRYSGVPDRFTGSGYGTDFTLTISNVQSEDLAEYFCQQYNNYPLTFGAGTKLELKR
B19: SCT-Pa20 (antibody, mouse IgG1, kappa, V domains shown)
VH: QVQLQQPGAELVKPGASVKLSCKASGYTFTDYWINWVKQRPGQGLEWIGNIYPGSSDTNYNEKFKRKATLTVDTSSSTAYMQLSSLTSDDSAVYYCARRPLFHAMDYWGQGTSVTVSS
VL: DIVLTQSPASLAVTLGQRATISCKASQSINYNGDNYMHWFQQKPGQPTKLLIYTASNLESGVPDRFSGSGSGTDFTLNIHPVEEEDAATYYCQQSKEFPWTFGGGTKLEIKR

molecular target: T1, Recombinant SARS-CoV-2 N protein His tagged (SARS-CoV-2, UniProt P0DTC9 1-419); test: BLI (Octet Red 96E), mAb on anti-mouse Fc biosensor, N protein in solution, global 1:1 fit
T1 construct: also called nucleocapsid (N) protein; recombinant HIS tagged SARS-CoV-2 N protein

Row | Binder | Kd [pM] | koff [s⁻¹] | kon [M⁻¹ s⁻¹]
1 | B1 | 181 | 8.01e-05 | 442000
2 | B2 | 2780 | 0.000597 | 215000
3 | B3 | 32.8 | 1.64e-05 | 498000
4 | B4 | 289 | 0.00018 | 624000
5 | B5 | 504 | 0.00017 | 337000
6 | B6 | 188 | 8.63e-05 | 458000
7 | B7 | 897 | 0.000772 | 860000
8 | B8 | 53.1 | 2.67e-05 | 503000
9 | B9 | 335 | 0.000247 | 738000
10 | B10 | 111 | 5.75e-05 | 517000
11 | B11 | 649 | 0.000278 | 428000
12 | B12 | 1000 | 0.00073 | 730000
13 | B13 | 128 | 7.23e-05 | 566000
14 | B14 | 994 | 0.000862 | 868000
15 | B15 | 1490 | 0.00154 | 1.04e+06
16 | B16 | 939 | 0.000461 | 491000
17 | B17 | 228 | 0.000127 | 557000
18 | B18 | 28.3 | 1.26e-05 | 444000
19 | B19 | 5.37 | 3.09e-06 | 576000
